Measurements from patent US7169559B2, “LDL receptor-related proteins 1 and 2 and treatment of bone or cartilage conditions” (Fonterra Corporate Research and Development Ltd., priority 2002, dated 2007).

B1: Lactoferrin: an 80 kDa glycoprotein present in milk and epithelial secretions; osteoblast growth factor present in fractionated bovine milk (protein, UniProt P24627 20-708, looked up)
Lactotransferrin: APRKNVRWCTISQPEWFKCRRWQWRMKKLGAPSITCVRRAFALECIRAIAEKKADAVTLDGGMVFEAGRDPYKLRPVAAEIYGTKESPQTHYYAVAVVKKGSNFQLDQLQGRKSCHTGLGRSAGWIIPMGILRPYLSWTESLEPLQGAVAKFFSASCVPCIDRQAYPNLCQLCKGEGENQCACSSREPYFGYSGAFKCLQDGAGDVAFVKETTVFENLPEKADRDQYELLCLNNSRAPVDAFKECHLAQVPSHAVVARSVDGKEDLIWKLLSKAQEKFGKNKSRSFQLFGSPPGQRDLLFKDSALGFLRIPSKVDSALYLGSRYLTTLKNLRETAEEVKARYTRVVWCAVGPEEQKKCQQWSQQSGQNVTCATASTTDDCIVLVLKGEADALNLDGGYIYTAGKCGLVPVLAENRKSSKHSSLDCVLRPTEGYLAVAVVKKANEGLTWNSLKDKKSCHTAVDRTAGWNIPMGLIVNQTGSCAFDEFFSQSCAPGADPKSRLCALCAGDDQGLDKCVPNSKEKYYGYTGAFRCLAEDVGDVAFVKNDTVWENTNGESTADWAKNLNREDFRLLCLDGTRKPVTEAQSCHLAVAPNHAVVSRSDRAAHVKQVLLHQQALFGKNGKNCPDKFCLFKSETKNLLFNDNTECLAKLGGRPTYEEYLGTEYVTAIANLKKCSTSPLLEACAFLTR
B2: RAP: the LRP-1/2-specific inhibitor, receptor-associated protein (RAP) (protein, UniProt P30533 35-357, looked up)
Alpha-2-macroglobulin …: YSREKNQPKPSPKRESGEEFRMEKLNQLWEKAQRLHLPPVRLAELHADLKIQERDELAWKKLKLDGLDEDGEKEARLIRNLNVILAKYGLDGKKDARQVTSNSLSGTQEDGLDDPRLEKLWHKAKTSGKFSGEELDKLWREFLHHKEKVHEYNVLLETLSRTEEIHENVISPSDLSDIKGSVLHSRHTELKEKLRSINQGLDRLRRVSHQGYSTEAEFEEPRVIDLWDLAQSANLTDKELEAFREELKHFEAKIEKHNHYQKQLEIAHEKLRHAESVGDGERVSRSREKHALLEGRTKELGYTVKKHLQDLSGRISRARHNEL

What was measured:
[1] = test system: cultured osteoblastic cells; assay: osteoblast proliferation (mitogenic/osteogenic effect); assay type: cell-based, rat, mouse, and human
Experimental: (§1) Osteoblasts were isolated from 20-day old fetal rat calvariae as previously described (Cornish et al. (1999) Amer. J. Physiol-Endocrinol. Metab. 277:E779–E783). Briefly, calvariae were excised and the frontal and parietal bones, free of suture and periosteal tissue, were collected. After washing, the calvariae were treated twice with 3 mL of 1 mg/mL collagenase for 7 minutes at 37° C. After discarding the supernatants from these two digestions, the calvariae were treated a further twice with 3 mL of 2 mg/mL collagenase (30 mins, 37° C.). The supernatants of the latter two digestions were pooled, centrifuged, and the cells washed. Cells were grown to confluence and then subcultured into 24 well plates. Cells were growth arrested in minimum essential medium (MEM)/0.1% bovine serum albumin for 24 h before harvest.
(§2) The human osteoblast-like osteosarcoma cell line SaOS-2 was maintained in DMEM (GIBCO 12100-046) supplemented with 2.2 g/L NaHCO3, 10% FBS, and 10 ml/L penicillin-streptomycin (GIBCO 15140-122). Cells were plated in 75 cm^2 flasks and when confluent used for total RNA isolation or proliferation assays.

chondrocytes = assay: chondrocyte mitogenesis; assay type: cell-based
osteoblast = osteoblast differentiation / mineralized bone nodules in long-term osteoblast cultures; assay type: cell-based
primary rat osteoblasts = assay: apoptosis induced by serum withdrawal; assay type: cell-based
Experimental: as §1

osteoclastogenesis = assay: murine bone marrow culture assay of osteoclastogenesis; assay type: cell-based
mature osteoclasts = assay: bone-resorbing activity of mature osteoclasts; assay type: cell-based
[2] = unilateral local hemicalvarial injection in adult mice; assay type: in vivo
LRP-1 = LRP-1 (Homo sapiens, UniProt Q07954); assay: binding of lactoferrin to LRP-1
LRP-2/megalin = LRP-2/megalin (Homo sapiens, UniProt P98164); assay: binding of lactoferrin to LRP-2
[3] = test system: primary rat osteoblastic cells; assay: endocytosis of lactoferrin observed under confocal microscopy; assay type: cell-based
Experimental: as §1

[4] = test system: p42/44 MAP kinase signaling pathway; assay: p42/44 MAP kinase signaling / phosphorylation in osteoblastic cells; assay type: cell-based
SaOS-2 cells = assay: proliferation in SaOS-2 cells; assay type: cell-based, human; conditions: only LRP-1 is expressed in SaOS-2 cells
Experimental: as §2

LRP-1-null fibroblasts = assay: proliferation in LRP-1-null versus LRP-1+/+ fibroblasts; assay type: cell-based

Sequence of LRP-1 (Q07954 20-4544, species assumed): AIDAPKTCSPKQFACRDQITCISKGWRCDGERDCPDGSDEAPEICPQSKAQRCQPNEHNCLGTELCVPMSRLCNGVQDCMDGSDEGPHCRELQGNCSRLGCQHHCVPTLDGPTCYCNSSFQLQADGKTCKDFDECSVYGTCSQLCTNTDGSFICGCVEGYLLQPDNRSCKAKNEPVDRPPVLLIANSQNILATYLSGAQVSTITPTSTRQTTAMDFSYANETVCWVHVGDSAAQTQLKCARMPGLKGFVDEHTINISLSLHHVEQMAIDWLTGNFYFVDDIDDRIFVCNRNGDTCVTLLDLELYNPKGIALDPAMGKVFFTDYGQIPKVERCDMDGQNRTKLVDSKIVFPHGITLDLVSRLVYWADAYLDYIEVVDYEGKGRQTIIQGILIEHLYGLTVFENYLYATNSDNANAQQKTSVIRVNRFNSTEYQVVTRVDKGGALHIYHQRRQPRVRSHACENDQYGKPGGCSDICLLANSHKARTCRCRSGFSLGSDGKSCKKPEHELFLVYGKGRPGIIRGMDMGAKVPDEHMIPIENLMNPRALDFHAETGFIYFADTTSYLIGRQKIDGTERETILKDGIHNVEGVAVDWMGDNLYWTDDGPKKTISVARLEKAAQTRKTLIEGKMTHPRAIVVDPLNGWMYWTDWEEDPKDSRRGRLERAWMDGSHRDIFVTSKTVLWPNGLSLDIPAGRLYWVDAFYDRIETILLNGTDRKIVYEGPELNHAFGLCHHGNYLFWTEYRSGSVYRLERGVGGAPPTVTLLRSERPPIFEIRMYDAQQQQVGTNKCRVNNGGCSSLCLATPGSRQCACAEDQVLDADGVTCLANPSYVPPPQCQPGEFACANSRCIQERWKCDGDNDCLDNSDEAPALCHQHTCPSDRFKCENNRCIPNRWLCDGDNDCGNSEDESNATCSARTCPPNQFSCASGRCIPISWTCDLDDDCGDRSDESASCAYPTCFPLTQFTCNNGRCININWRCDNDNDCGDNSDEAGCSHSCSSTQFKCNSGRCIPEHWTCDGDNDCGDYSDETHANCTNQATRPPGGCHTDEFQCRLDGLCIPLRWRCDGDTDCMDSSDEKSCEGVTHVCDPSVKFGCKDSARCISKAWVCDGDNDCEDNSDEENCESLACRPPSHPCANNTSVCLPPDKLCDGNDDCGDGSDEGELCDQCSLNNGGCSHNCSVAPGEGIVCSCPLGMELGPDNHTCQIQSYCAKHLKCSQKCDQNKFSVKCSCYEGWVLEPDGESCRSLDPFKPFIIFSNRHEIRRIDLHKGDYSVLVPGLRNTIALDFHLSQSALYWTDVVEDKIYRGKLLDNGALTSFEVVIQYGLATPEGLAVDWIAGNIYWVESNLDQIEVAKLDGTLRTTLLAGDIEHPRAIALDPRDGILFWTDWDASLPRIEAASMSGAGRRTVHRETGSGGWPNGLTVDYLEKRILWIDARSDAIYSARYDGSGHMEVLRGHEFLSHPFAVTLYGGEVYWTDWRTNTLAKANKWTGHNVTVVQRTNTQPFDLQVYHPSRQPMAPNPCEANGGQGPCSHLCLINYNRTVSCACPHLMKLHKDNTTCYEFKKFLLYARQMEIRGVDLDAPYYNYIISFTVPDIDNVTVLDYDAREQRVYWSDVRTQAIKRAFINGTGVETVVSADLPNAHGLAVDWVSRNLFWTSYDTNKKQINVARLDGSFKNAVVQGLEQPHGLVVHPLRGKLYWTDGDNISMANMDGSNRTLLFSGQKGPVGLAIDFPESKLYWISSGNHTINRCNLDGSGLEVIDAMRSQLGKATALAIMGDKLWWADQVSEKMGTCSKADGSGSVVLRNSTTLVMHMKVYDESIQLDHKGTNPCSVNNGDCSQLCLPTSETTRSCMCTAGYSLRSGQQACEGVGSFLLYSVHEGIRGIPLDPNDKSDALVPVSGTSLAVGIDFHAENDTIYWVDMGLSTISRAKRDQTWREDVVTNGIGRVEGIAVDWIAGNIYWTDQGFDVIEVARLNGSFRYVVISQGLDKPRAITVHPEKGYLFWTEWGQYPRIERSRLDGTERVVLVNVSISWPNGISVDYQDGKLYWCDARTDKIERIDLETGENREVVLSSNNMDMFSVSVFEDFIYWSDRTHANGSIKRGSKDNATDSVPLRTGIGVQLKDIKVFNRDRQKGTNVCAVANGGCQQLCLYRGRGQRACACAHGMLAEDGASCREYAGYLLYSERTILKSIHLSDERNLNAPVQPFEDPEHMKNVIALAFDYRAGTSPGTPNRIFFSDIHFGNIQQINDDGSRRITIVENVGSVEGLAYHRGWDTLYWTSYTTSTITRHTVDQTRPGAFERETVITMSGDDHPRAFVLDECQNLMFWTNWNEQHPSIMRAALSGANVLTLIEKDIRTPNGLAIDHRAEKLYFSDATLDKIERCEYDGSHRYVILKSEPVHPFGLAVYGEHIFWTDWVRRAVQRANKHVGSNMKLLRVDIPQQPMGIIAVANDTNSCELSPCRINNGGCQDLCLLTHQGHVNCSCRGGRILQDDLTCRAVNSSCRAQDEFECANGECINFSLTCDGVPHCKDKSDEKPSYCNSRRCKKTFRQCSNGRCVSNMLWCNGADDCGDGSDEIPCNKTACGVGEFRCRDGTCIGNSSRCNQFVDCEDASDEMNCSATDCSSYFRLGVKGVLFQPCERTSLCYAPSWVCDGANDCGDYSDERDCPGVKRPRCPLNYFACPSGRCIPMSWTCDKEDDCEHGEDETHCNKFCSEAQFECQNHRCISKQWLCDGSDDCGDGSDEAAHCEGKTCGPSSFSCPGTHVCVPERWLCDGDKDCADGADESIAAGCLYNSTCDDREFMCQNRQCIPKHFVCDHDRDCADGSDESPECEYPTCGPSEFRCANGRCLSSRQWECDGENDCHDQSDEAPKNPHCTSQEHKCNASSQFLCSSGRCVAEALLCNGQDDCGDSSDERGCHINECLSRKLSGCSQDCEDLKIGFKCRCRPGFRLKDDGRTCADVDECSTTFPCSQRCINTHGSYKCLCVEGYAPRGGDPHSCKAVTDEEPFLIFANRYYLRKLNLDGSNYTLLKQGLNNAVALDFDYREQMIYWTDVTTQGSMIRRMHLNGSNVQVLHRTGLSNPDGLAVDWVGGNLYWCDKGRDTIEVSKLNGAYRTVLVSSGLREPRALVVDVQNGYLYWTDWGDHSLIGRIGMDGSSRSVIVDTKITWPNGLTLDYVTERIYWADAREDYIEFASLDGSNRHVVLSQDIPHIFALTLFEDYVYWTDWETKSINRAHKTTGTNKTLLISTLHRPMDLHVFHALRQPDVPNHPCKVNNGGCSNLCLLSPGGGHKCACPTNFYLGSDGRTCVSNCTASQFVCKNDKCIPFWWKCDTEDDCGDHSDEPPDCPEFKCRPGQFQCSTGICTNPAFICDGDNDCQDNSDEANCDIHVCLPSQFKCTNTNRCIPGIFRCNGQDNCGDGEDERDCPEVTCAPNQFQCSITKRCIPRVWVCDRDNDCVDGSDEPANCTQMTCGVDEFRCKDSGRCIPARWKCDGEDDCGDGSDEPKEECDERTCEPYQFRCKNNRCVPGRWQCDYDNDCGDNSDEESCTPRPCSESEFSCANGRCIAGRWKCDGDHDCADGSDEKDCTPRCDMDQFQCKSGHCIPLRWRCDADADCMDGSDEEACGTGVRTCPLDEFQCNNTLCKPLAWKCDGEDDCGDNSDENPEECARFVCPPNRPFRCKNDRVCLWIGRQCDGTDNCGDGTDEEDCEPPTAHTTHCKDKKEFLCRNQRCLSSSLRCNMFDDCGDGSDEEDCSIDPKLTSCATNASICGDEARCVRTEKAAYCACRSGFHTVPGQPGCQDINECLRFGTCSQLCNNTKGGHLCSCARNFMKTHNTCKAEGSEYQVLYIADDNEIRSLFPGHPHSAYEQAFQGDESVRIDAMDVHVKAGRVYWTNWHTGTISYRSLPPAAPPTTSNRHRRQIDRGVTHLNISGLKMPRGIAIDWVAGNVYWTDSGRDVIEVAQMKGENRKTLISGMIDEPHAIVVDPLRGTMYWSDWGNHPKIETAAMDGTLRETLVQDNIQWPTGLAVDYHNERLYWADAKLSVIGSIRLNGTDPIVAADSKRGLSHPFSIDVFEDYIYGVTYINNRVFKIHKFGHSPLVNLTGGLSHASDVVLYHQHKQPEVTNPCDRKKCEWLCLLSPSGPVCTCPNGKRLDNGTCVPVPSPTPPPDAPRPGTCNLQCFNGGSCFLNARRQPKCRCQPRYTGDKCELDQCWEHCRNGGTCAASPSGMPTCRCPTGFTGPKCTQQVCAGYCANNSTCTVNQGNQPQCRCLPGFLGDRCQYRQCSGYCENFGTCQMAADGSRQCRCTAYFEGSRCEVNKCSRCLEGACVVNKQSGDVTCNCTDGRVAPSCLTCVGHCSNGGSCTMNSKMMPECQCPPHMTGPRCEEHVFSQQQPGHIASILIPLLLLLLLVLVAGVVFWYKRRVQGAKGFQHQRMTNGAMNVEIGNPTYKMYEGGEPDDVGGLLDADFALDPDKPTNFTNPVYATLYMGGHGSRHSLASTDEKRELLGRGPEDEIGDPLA

Molecule	proliferation of cultured osteoblastic cells ([1]; cells of rat, mouse, and human origin)	mitogenic to chondrocytes (chondrocytes)	osteoblast differentiation (osteoblast)	number of mineralized bone nodules (osteoblast; long-term osteoblast cultures)	apoptosis induced by serum withdrawal (primary rat osteoblasts)	osteoclastogenesis (osteoclastogenesis)	bone-resorbing activity of mature osteoclasts (mature osteoclasts)	bone area [2]	indices of bone formation [2]	binding to LRP-1 (LRP-1)	binding to LRP-2/megalin (LRP-2/megalin)	endocytosis by primary rat osteoblastic cells [3]	activation of p42/44 MAP kinase signaling pathway ([4]; osteoblastic cells)	proliferation in SaOS-2 cells (SaOS-2 cells)	proliferation in LRP-1-null fibroblasts compared with LRP-1+/+ cells (LRP-1-null fibroblasts)	effect on lactoferrin-induced osteoblast proliferation ([1]; in the presence of lactoferrin)	effect on endocytosis of lactoferrin ([3]; primary rat osteoblastic cells)	effect on lactoferrin-induced MAP kinase phosphorylation ([4]; in the presence of lactoferrin)
B1	stimulates proliferation of cultured osteoblastic cells of rat, mouse, and human origin potently and in a dose-dependent manner	mitogenic to chondrocytes	capable of inducing osteoblast differentiation	significantly increase	inhibits apoptosis	strongly inhibits osteoclastogenesis	does not affect	dose-dependent and substantial increases	dose-dependent and substantial increases	has been found to bind	has been found to bind	is endocytosed	activates the p42/44 MAP kinase signaling pathway	induces proliferation	substantially less marked	–	–	–
B2	–	–	–	–	–	–	–	–	–	–	–	–	–	–	–	blocked	abrogates this process	blocked
